To fix the notation:
B1: 539C-M0016-E11 (Fab, V domains shown)
VH: EVQLLESGGGLVQPGGSLRLSCAASGFTFSFYVMDWVRQAPGKGLEWVSGIGPSGGSTDYADSVKGRFTISRDNSKNTLYLQMNSLRAEDTAVYYCTRIRYDSSGYPTDAFDIWGQGTMVTVSS
VL: DIQMTQSPATLSLSPGERATLSCRASQSVSSYLAWYQQKPGQAPRLLIYDASNRATGIPARFSGSGSGTDFTLTISSLEPEDFAVYYCQQRSNWPLTFGGGTKVEIKR
notes: It was tested as Fab on phage, as soluble Fab, and biotinylated in the ECL assay
B2: 539C-R0010-B06 (Fab, V domains shown)
VH: EVQLLESGGGLVQPGGSLRLSCAASGFTFSEYQMNWVRQAPGKGLEWVSSIYSSGGGTAYADSVKGRFTISRDNSKNTLYLQMNSLRAEDTAVYYCAKDQGDGYNYGVGLDYWGQGTLVTVSS
VL: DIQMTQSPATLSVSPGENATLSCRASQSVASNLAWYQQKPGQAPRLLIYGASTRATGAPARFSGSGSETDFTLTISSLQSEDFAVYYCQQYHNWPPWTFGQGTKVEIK
notes: A Fab from the phage display library with a kappa light chain; Only the starts of the constant regions are printed (RTVAAPS)
B3: 539C-R0010-D06 (Fab, V domains shown)
VH: EVQLLESGGGLVQPGGSLRLSCAASGFTFSDYSMYWVRQAPGKGLEWVSYISSSGGNTEYADSVKGRFTISRDNSKNTLYLQMNSLRAEDTAMYYCATTPSIWLGDLLENGPYWGQGTLVTVSS
VL: QYELTQPHSVSESPGKTVTISCTRSNGTIDNSFVQWYQQRPGSAPTTVIYEDTQRPSGVPDRFSGSIDSSSNSASLTISGLKTEDEADYYCQSYDSTNRGVFGGGTKLTVL
notes: A Fab from the phage display library with a lambda light chain; Only the starts of the constant regions are printed (GQPKAAP)
B4: 539C-R0010-F05 (Fab, V domains shown)
VH: EVQLLESGGGLVQPGGSLRLSCAASGFTFSWYAMVWVRQAPGKGLEWVSGISPSGGLTSYADSVKGRFTISRDNSKNTLYLQMNSLRAEDTAVYYCARKQMSPDYYYGMDVWGQGTTVTVSS
VL: QSVLTQPPSVSVAPGQTATISCEGDNIGSKSVHWYQQRPGQAPVLVVYDDYDRPSGIPERFSGFNSGNTATLTIYRVEAGDEADFYCQVRDSRTEERVFGGGTKLTVL
notes: A Fab from the phage display library with a lambda light chain; Only the starts of the constant regions are printed
B5: 539C-R0004-G04 (Fab, V domains shown)
VH: EVQLLESGGGLVQPGGSLRLSCAASGFTFSDYDMHWVRQAPGKGLEWVSGISPSGGWTWYADSVKGRFTISRDNSKNTLYLQMNSLRAEDTAVYYCARDWYSSGLDYWGQGTLVTVSS
VL: QYELTQPPSVSVAPGQTARIICGGNDIGSKGVHWYHQKAGQAPVLLVYDNTDRPSGIPERFSGSNSGNTAALTITRVEAGDEADYFCQVWDSTGEHAVFGGGTKLTVL
notes: A Fab from the phage display library with a lambda light chain; Only the starts of the constant regions are printed; The VL is built from the FR/CDR columns because the joined LV-AA print (r109-r111) reads ADYEC where LV-FR3 reads ADYFC
B6: 539C-R0010-F06 (Fab, V domains shown)
VH: EVQLLESGGGLVQPGGSLRLSCAASGFTFSDYHMSWVRQAPGKGLEWVSGISSSGGETFYADSVKGRFTISRDNSKNTLYLQMNSLRAEDTAVYYCASGSHRDGYNLGYFDYWGQGTLVTVSS
VL: DIQMTQSPASLSASVGDRVTITCQASRDIGEYLNWYQQKAGKPPKLLISDATTLETGVPSRFSGTGSGTEFLFTISSVEPEDFATYYCQQYDDLTWISFGPGTRLDVK
notes: A Fab from the phage display library with a kappa light chain; Only the starts of the constant regions are printed
B7: 539C-R0010-E06 (Fab, V domains shown)
VH: EVQLLESGGGLVQPGGSLRLSCAASGFTFSDYWMFWVRQAPGKGLEWVSGIGPSGGIISYADSVKGRFTISRDNSKNTLYLQMNSLRAEDTAVYYCAKYGDYVSGFDYWGQGTLVTVSS
VL: QSALTQPASVSGSPGQSITISCTGTSSDVGGYKLVSWYQQHPGKVPKLIISEVSYRPSGVSNRFSGSKSGNAASLTISGLQAEDEADYYCSSYTSTSTWVFGGGTKLTVL
notes: as for B4
B8: 539C-R0010-C05 (Fab, V domains shown)
VH: EVQLLESGGGLVQPGGSLRLSCAASGFTFSGYGMGWVRQAPGKGLEWVSYIVPSGGATDYADSVKGRFTISRDNSKNTLYLQMNSLRAEDTAVYYCARAYYYDSSGFDIWGQGTMVTVSS
VL: DIQMTQSPSSLSASVGDRVTITCLPSQDISVYLNWYQQKPGEAPKLLISATSDLQSGVPSRFGGSGYGTDFSLTITSLQREDFATYYCQQSYSLPFTFGGGTRVEIK
notes: as for B6
B9: 539C-R0010-C06 (Fab, V domains shown)
VH: EVQLLESGGGLVQPGGSLRLSCAASGFTFSSYNMAWVRQAPGKGLEWVSVIVPSGGLTGYADSVKGRFTISRDNSKNTLYLQMNSLRAEDTAVYYCARERGGFYSSGWYRYWFDPWGQGTLVTVSS
VL: DIQMTQSPSSLSASVGDRVTITCRASQNINTFLNWYQQKPGKAPKLLIYGASSLQSGVPSRFSGSGSGTDFTLTISSLQPEDFATYYCQQSSDALVYNFGQGTKLEIK
notes: as for B6
B10: 539C-M0021-E01 (Fab, V domains shown)
VH: EVQLLESGGGLVQPGGSLRLSCAASGFTFSVYPMIWVRQAPGKGLEWVSYISSSGGQTWYADSVKGRFTISRDNSKNTLYLQMNSLRAEDTATYYCARGDDYDSSGPDYWGQGTLVTVSS
VL: DIQMTQSPSSLSASEGDRITLTCRASQSISIYLNWYQQKPGRAPKLLMYAATTLQSGVPSRFSGSGSGTDFTLTISGLRPEDFATYYCQQSYDIPLTFGGGTKVEIKR
notes: It was tested as Fab on phage and as soluble Fab

One assay concerns the target T1, DX-2400.
T1 construct: Only the variable domains are printed (joined from rows r3-r12 and r17-r26); It was biotinylated for phage selection; also called DX-2400 IgG; fully human monoclonal anti-MMP-14 antibody
Put plainly: phage ELISA. From the text: Three rounds of selection were done against biotinylated DX-2400 after depleting the library using biotinylated-DX-2300 IgG (control antibody that binds unrelated target) and biotinylated matched Vk Fab (371L-X002-A03) (isotype matched control) immobilized on streptavidin magnetic beads. […] Forty-nine unique phage clones which had distinct heavy chains were secondarily screened by phage ELISA and ranked for specific binding to DX-2400. Later 45 soluble Fabs were expressed, purified and screened for non-specific binding to 5% human, cyno, rat, and mouse serum antibodies by using Fab as capture reagent and detecting with alkaline phosphatase-conjugated mouse anti-human Fc gamma-specific antibody.
For orientation: In an ELISA, binding on a coated surface is turned into a signal by an enzyme label.
For the molecule B1, the binding result is reported as “binds”.

Another assay deals with T1, DX-2400. In words: phage display selection and ELISA screening. From the text: Anti-idiotypic Fabs for DX-2400 were generated by phage selection and screenings using DX-2400 as a target. […] Forty nine were distinct as determined by DNA sequencing. These 49 unique clones were screened as phages and sFabs (soluble Fabs) in 5% pooled normal serum matrices (human, mouse, rat and cynomolgus monkey). Top 10 unique clones were ranked according to the following criteria: strong binding to DX-2400, weak binding to DX-2300, low-non specific binding to streptavidin and Fab control.
For the molecule B2, the binding result is given as “binds”.
Still for that read-out and setting: as for B3, the entry is “binds”.
Same read-out and setting: as for B4, the entry is “binds”.
The same measure, in the same setting: the result for B5 reads “binds”; that for B6, “binds”.
For the molecule B7, the binding result is “binds”.
Take B8: the binding result is “binds”.
As to B9, the binding result is listed as “binds”.
Still for that read-out and setting: as for B10, the entry is “binds”.

Values taken from US20090275124A1 (DYAX, published 2009).
